The values that follow come from article PMC5454391, “Improving 10-deacetylbaccatin III-10-β-O-acetyltransferase catalytic fitness for Taxol production” (Nature Communications, 2017).

Changes are numbered by the printed parent chain. Names and notes keep the numbering of the source.

To fix the notation:
B1: DBAT (recombinant DBAT of T. cuspidata) (Taxus cuspidata) (protein)
chain: MAGSTEFVVRSLERVMVAPSQPSPKAFLQLSTLDNLPGVRENIFNTLLVYNASDRVSVDPAKVIRQALSKVLVYYSPFAGRLRKKENGDLEVECTGEGALFVEAMADTDLSVLGDLDDYSPSLEQLLFCLPPDTDIEDIHPLVVQVTRFTCGGFVVGVSFCHGICDGLGAGQFLIAMGEMARGEIKPSSEPIWKRELLKPEDPLYRFQYYHFQLICPPSTFGKIVQGSLVITSETINCIKQCLREESKEFCSAFEVVSALAWIARTRALQIPHSENVKLIFAMDMRKLFNPPLSKGYYGNFVGTVCAMDNVKDLLSGSLLRVVRIIKKAKVSLNEHFTSTIVTPRSGSDESINYENIVGFGDRRRLGFDEVDFGWGHADNVSLVQHGLKDVSVVQSYFLFIRPPKNNPDGIKILSFMPPSIVKSFKFEMETMTNKYVTKP
B2: DBAT (recombinant DBAT of T. cuspidata) (Taxus cuspidata; G38R) (protein)
chain: B1 chain with G38R
B3: DBAT (recombinant DBAT of T. cuspidata) (Taxus cuspidata; F301V/G38R) (protein)
chain: B1 chain with G38R, F301V
B4: DBAT (recombinant DBAT of T. cuspidata) (Taxus cuspidata; F301V) (protein)
chain: B1 chain with F301V

Substrate in this data set: [H][C@]12[C@H](OC(=O)c3ccccc3)[C@]3(O)C[C@H](OC(=O)[C@H](O)[C@@H](NC(=O)c4ccccc4)c4ccccc4)C(C)=C([C@@H](O)C(=O)[C@]1(C)[C@@H](O)C[C@@]1([H])OC[C@@]21OC(C)=O)C3(C)C
Briefly: purified protein. Conditions: acetyl-CoA 2,000 μM (saturating), 50 mM sodium acetate pH 5.5, 37.5 °C, 180 min.
Usually Vmax stands for the rate approached at saturating substrate. One may read the kcat as the number of substrate molecules converted per active site and unit of time at saturation. As a reminder, the kcat/Km is the second-order rate constant that governs catalysis at low substrate concentration. As for B1, the Km is listed as 0.546 (±0.029) mM, the maximal velocity (Vmax) came to 0.204 µM/min, the kcat came out at 0.000334 s⁻¹ and the kcat/Km came out at 0.611 M⁻¹ s⁻¹.

For B2, the Km was 0.368 (±0.061) mM, the Vmax turned out to be 0.499 µM/min, the kcat turned out to be 0.000815 s⁻¹ and the kcat/Km turned out to be 2.22 M⁻¹ s⁻¹.

B3: the Km is listed as 0.424 (±0.133) mM, the maximum rate (Vmax) is 0.918 µM/min, the turnover number (kcat) is 0.0015 s⁻¹ and the specificity constant (kcat/Km) is 3.54 M⁻¹ s⁻¹.

On to B4, for which the Km is reported as 0.178 (±0.017) mM, the maximum rate (Vmax) is 0.242 µM/min, the kcat was 0.000396 s⁻¹ and the kcat/Km was found to be 2.22 M⁻¹ s⁻¹.
